Numbering of substitutions follows the chain as printed.
T1: 效应细胞的CD3抗原 (CD3 on Jurkat-NFAT-CD3 cells and human T cells) (human)
T1 chain: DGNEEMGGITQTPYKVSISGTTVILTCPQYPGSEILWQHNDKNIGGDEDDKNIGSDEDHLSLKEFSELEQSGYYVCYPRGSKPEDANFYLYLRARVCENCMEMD

T2: 细胞表面表达的DLL3 (H82 and LS174T-DLL3 cells) (human, UniProt Q9NYJ7 27-618)
T2 sequence (looked up): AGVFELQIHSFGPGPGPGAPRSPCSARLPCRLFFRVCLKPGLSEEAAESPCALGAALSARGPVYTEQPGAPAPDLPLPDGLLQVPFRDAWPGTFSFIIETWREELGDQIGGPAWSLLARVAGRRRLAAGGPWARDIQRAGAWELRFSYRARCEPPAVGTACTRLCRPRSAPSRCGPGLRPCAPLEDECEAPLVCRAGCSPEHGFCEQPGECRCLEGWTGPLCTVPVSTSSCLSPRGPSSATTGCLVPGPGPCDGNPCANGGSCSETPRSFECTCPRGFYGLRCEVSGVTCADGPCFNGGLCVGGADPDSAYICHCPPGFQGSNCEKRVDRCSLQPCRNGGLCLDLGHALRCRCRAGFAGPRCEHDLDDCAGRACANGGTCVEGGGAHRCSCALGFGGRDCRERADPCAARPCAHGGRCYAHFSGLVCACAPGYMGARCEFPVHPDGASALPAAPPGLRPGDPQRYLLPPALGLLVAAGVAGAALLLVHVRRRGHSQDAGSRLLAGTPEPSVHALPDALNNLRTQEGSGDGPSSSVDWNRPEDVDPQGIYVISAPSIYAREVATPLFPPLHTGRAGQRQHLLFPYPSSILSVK

T3: 人CD3蛋白 (human)
T3 chain: T1 chain

T4: 人DLL3蛋白(His标签) (human, UniProt Q9NYJ7 27-479)
T4 construct: Bought protein (ACRO); also called 重组人DLL3; human DLL3 protein (His tag); not shown: His tag
T4 sequence (looked up): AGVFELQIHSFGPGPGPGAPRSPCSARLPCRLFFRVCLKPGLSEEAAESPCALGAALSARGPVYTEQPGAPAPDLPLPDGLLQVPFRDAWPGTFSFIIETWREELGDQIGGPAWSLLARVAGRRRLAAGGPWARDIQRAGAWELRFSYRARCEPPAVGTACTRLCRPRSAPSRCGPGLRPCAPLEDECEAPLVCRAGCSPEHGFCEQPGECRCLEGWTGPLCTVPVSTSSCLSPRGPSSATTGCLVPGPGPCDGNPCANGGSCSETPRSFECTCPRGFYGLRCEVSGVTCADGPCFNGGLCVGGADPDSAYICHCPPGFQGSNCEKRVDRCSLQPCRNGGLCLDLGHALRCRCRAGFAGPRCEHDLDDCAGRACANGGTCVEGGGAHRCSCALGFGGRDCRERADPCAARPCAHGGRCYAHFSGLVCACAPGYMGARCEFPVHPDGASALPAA

B1: DLL3-1G2H1L1-M6MV1-1 (bispecific antibody, human IgG1, kappa)
light: QVQLVQSGAELKKPGASVKLSCKASGYSFTSYWMNWVRQAPGQGLEWMGMIHPSDSETRLNQKFKDRVTLTVDKSSSTAYMELSSLTSEDTAVYYCARWDYYDYAWFAYWGQGTLVTVSSGGGGSGGGGSGGGGSDVVMTQTPLSLPVTLGQPASISCRSSQSIVHSNGDTYLEWYLQKPGQSPQLLIYKVSNRFSGVPDRFSGSGSGTDFTLKISRVEAEDVGVYYCFQGSHVPWTFGQGTKVEIKGSGGGGSGGGGSEIVVTQSPATLSVSPGERATLSCRSSTGAVTTSNYANWVQQKPGQAPRGLIGGANKRAPGVPARFSGSLSGDEATLTISSLQSEDFAVYYCALWYSNLWVFGQGTKLEIKRTVAAPSVFIFPPSDEQLKSGTASVVCLLNNFYPREAKVQWKVDNALQSGNSQESVTEQDSKDSTYSLSSTLTLSKADYEKHKVYACEVTHQGLSSPVTKSFNRGECGGSGSCPPCPAPEAAGAPSVFLFPPKPKDTLMISRTPEVTCVVVDVSHEDPEVKFNWYVDGVEVHNAKTKPREEQYNSTYRVVSVLTVLHQDWLNGKEYKCKVSNKALGAPIEKTISKAKGQPREPQVYTLPPSRDELTKNQVSLLCLVKGFYPSDIAVEWESNGQPENNYKTTPPVLDSDGSFFLHSKLTVDKSRWQQGNVFSCSVMHEALHNHYTQKSLSLSPG
heavy: EVQLVESGGGLVQPGGSLRLSCAASGFTFNTYAMNWVRQAPGKGLEWVARIRSKYNNYATYYADSVKGRFTISRDDSKNTLYLQMNSLRAEDTAVYYCARHGNFGSSYVSYFAYWGQGTTVTVSSASTKGPSVFPLAPSSKSTSGGTAALGCLVKDYFPEPVTVSWNSGALTSGVHTFPAVLQSSGLYSLSSVVTVPSSSLGTQTYICNVNHKPSNTKVDKKVEPKSCDKTHTCPPCPAPEAAGAPSVFLFPPKPKDTLMISRTPEVTCVVVDVSHEDPEVKFNWYVDGVEVHNAKTKPREEQYNSTYRVVSVLTVLHQDWLNGKEYKCKVSNKALGAPIEKTISKAKGQPREPQVYTLPPSRDELTKNQVSLLCLVKGFYPSDIAVEWESNGQPENNYKTTPPVLDSDGSFFLHSKLTVDKSRWQQGNVFSCSVMHEALHNHYTQKSLSLSPG
notes: also called DLL3×CD3 BiTE
B2: DLL3-1G2H2L1-M6MV1-1 (bispecific antibody, human IgG1, kappa)
light: B1 light with K13R, M48I, R67K, V68A, T91S
heavy: B1 heavy
notes: also called DLL3×CD3 BiTE
B3: DLL3-1G2 mAb (antibody, human IgG1, kappa, V domains shown)
VH: QVQLQQPGAELVRPGASVKLSCKASGYSFTSYWMNWVKQRPGQGLEWIGMIHPSDSETRLNQKFKDKATLTVDKSSSTAYMQLSSPTSEDSAVYYCARWDYYDYAWFAYWGQGTLVTVSA
VL: DVLMTQTPLSLPVSLGDQASISCRSSQSIVHSNGDTYLEWYLQKPGQSPNLLIYKVSNRFSGVPDRFSGSGSGTDFTLKISRVEAEDLGVYHCFQGSHVPWTFGGGTKLEIKR
notes: Chimeric full IgG1: Fab of murine clone 1G2 fused to human IgG1 Fc; also called 抗DLL3单克隆抗体

Legend:
[1] = biological target: T1, 效应细胞的CD3抗原 (CD3 on Jurkat-NFAT-CD3 …); assay: cell-based or functional assay
[2] = biological target: T2, 细胞表面表达的DLL3 (H82 and LS174T-DLL3 cells); assay: cell-based or functional assay
人CD3蛋白 = biological target: T3, 人CD3蛋白; assay: ELISA, coated human CD3 protein
人DLL3蛋白(His标签) [3] = biological target: T4, 人DLL3蛋白(His标签); assay: ELISA, coated human DLL3 protein
人DLL3蛋白(His标签) [4] = biological target: T4, 人DLL3蛋白(His标签); assay: ELISA, coated human DLL3 protein 100 ng per well, anti-Fc HRP detection

| Binder | CTL EC50 (T cell dependent cytotoxicity on LS174T-DLL3 cells, human T cells, CCK8) [1] | T cell activation (Jurkat-NFAT-CD3 luciferase reporter) with H82 target cells, EC50 [1] | T cell activation (Jurkat-NFAT-CD3 luciferase reporter) with LS174T-DLL3 target cells, EC50 [1] | CTL EC50 (T cell dependent cytotoxicity on LS174T-DLL3 cells, human T cells, CCK8) [2] | T cell activation (Jurkat-NFAT-CD3 luciferase reporter) with H82 target cells, EC50 [2] | T cell activation (Jurkat-NFAT-CD3 luciferase reporter) with LS174T-DLL3 target cells, EC50 [2] | EC50 (人CD3蛋白) | EC50 (人DLL3蛋白(His标签) [3]) | EC50 (人DLL3蛋白(His标签) [4]) |
| --- | --- | --- | --- | --- | --- | --- | --- | --- | --- |
| B1 | 0.305 µg/mL | ~4.02 µg/mL | ~5.47 µg/mL | 0.305 µg/mL | ~4.02 µg/mL | ~5.47 µg/mL | 1.45 µg/mL | 0.378 µg/mL |  |
| B2 | 0.104 µg/mL | ~1.97 µg/mL | ~2.7 µg/mL | 0.104 µg/mL | ~1.97 µg/mL | ~2.7 µg/mL | 0.892 µg/mL | 0.267 µg/mL |  |
| B3 |  |  |  |  |  |  |  |  | 0.0295 µg/mL |

From patent CN116789836A (ZHEJIANG SHIMAI PHARMACEUTICAL CO LTD, dated 2023)
